Reference: US20140171623A1 (published 2014)

B1: mAb 12G3H11 (wild type hinge), human anti-human EphA2 IgG1 (antibody)
heavy: not shown
light: DIQMTQSPSSLSASVGDRVTITCRASQSISNNLHWYQQKPGKAPKLLIKYAFQSISGVPSRFSGSGSGTDFTFTISSLQPEDFATYYCQQANSWPLTFGGGTKVEIK
notes: domain: CH1;domain: lower hinge, CH2, CH3; Human IgG1/κ from HEK 293 cells; also called Wild type (12G3H11); not shown: human κ chain constant region
B2: 12G3H11 Fc variant 5-GGG Insert Low (antibody, human IgG1)
heavy: not shown
light: B1 light
notes: domain: CH1;domain: lower hinge, CH2, CH3; Human IgG1/κ; not shown: human κ chain constant region
B3: 12G3H11 Fc variant 13-2 AA Delete Mid (antibody, human IgG1)
heavy: not shown
light: B1 light
notes: as for B2
B4: 12G3H11 Fc variant 8-PP to GG Low (antibody, human IgG1)
heavy: not shown
light: B1 light
notes: as for B2
B5: 12G3H11 Fc variant 17-DKTHT to PPPPP (antibody, human IgG1)
heavy: not shown
light: B1 light
notes: as for B2
B6: 12G3H11 Fc variant 20-KT to WW Mid (antibody, human IgG1)
heavy: not shown
light: B1 light
notes: as for B2
B7: 12G3H11 Fc variant 19-PP to WW Low (antibody, human IgG1)
heavy: not shown
light: B1 light
notes: as for B2
B8: 12G3H11 Fc variant 14-T to C Middle (antibody, human IgG1)
heavy: not shown
light: B1 light
notes: as for B2
B9: 12G3H11 Fc variant 1-CD Invert (antibody, human IgG1)
heavy: not shown
light: B1 light
notes: as for B2
B10: 12G3H11 Fc variant 18-EPKS to PPPP (antibody, human IgG1)
heavy: not shown
light: B1 light
notes: as for B2
B11: 12G3H11 Fc variant 6-GGG Insert High (antibody, human IgG1)
heavy: not shown
light: B1 light
notes: as for B2

What was measured:
[1] = molecular target: T1, FLAG-tagged extracellular domain of human FcγRIIIA (F158 allotype) (human, UniProt P08637 17-208); assay: SPR (BIAcore 3000), IgG immobilised, soluble FLAG-tagged human FcγRIIIA, equilibrium fit
T1 construct: extracellular domain; Secreted from HEK 293 cells, purified on anti-FLAG M2 agarose; also called FLAG-tagged FcγRIIIA; Flag-tagged Human FcγRIIIA; not shown: FLAG tag
Experimental: Protein concentrations were calculated by the bicinchoninic acid methods. The different human IgG1s were coupled to the dextran matrix of a CM5 sensor chip (Pharmacia Biosensor) using an Amine Coupling Kit as described (Johnsson et al., 1991, Anal. Biochem. 198: 268-77) at a surface density of between 7765 and 8385 RU. Excess reactive esters were quenched by injection of 70 μl of 1.0 M ethanolamine hydrochloride, pH 8.5. […] Dilutions and binding experiments were carried out in 50 mM HBS buffer containing 0.01 M HEPES pH 7.4, 0.15 M NaCl, 3 mM EDTA and 0.005% P-20. Data were collected for about 50 min, and one 30 sec pulse of 5 mM HCl was used to regenerate the surfaces. Flag-tagged human FcγRIIIA was allowed to flow over an uncoated cell, and the sensorgrams from these blank runs subtracted from those obtained with IgG1-coupled chips.

[2] = molecular target: T2, human EphA2-Fc (human, UniProt P29317 25-534, limits assumed); assay: KinExA, solution equilibrium titration with human EphA2-Fc
T2 construct: not shown: Fc part; origin and limits not described
Experimental: Protein concentrations were calculated by the BCA method. […] Coated beads were then separated from unreacted EphA2-Fc using a gentle pulse spin and blocked for approximately 2 h at room temperature with 1 M Tris, pH 8.0, bovine serum albumin 10 mg/mL. Beads were then resuspended in 30 mL of run buffer (PBS, pH 7.4-0.02% NaN₃) and packed into a column. […] The amount of free IgG in the samples was derived from the fluorescence signal obtained after the passing of Cy5-labeled goat anti-human IgG F(ab′)₂ (typically 0.5-2 μg/ml; Jackson ImmunoResearch Laboratories, West Grove, Pa.) through the column. Dissociation constants (KDs) were determined by fitting the individual equilibrium titration data to a 1:1 binding model using the KinExA Pro 1.0.3. software.

[3] = molecular target: T3, human C1q (Quidel) (human, UniProt P02745 23-245; P02746 28-253; P02747 29-245); assay: SPR (BIAcore 3000), IgG immobilised, soluble human C1q, equilibrium fit
T3 construct: Bought protein (Quidel, CA); In the CDC assays C1q came with normal human serum complement; also called complement protein C1q; soluble human C1q
Experimental: Protein concentrations were calculated by the bicinchoninic acid methods. The different human IgG1s were coupled to the dextran matrix of a CM5 sensor chip (Pharmacia Biosensor) using an Amine Coupling Kit as described (Johnsson et al., 1991, Anal. Biochem. 198: 268-77) at a surface density of between 4830 and 9221 RU. Excess reactive esters were quenched by injection of 70 μl of 1.0 M ethanolamine hydrochloride, pH 8.5. […] Dilutions and binding experiments were carried out in 50 mM HBS buffer containing 0.01 M HEPES pH 7.4, 0.15 M NaCl, 3 mM EDTA and 0.005% P-20. Data were collected for about […], and two 1-min pulse of 1M NaCl/50 mM NaOH were used to regenerate the surfaces. Human C1q was allowed to flow over an uncoated cell, and the sensorgrams from these blank runs subtracted from those obtained with IgG1-coupled chips.

T3 sequence (P02745 23-245 limits assumed, chain 1 of 3): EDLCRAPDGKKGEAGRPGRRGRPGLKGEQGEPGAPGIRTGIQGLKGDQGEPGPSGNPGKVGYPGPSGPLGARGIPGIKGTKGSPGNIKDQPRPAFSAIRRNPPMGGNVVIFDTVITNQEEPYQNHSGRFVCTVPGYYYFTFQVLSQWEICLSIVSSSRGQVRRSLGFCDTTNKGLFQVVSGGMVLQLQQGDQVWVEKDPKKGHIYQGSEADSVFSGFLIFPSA
T3 sequence (P02746 28-253 limits assumed, chain 2 of 3): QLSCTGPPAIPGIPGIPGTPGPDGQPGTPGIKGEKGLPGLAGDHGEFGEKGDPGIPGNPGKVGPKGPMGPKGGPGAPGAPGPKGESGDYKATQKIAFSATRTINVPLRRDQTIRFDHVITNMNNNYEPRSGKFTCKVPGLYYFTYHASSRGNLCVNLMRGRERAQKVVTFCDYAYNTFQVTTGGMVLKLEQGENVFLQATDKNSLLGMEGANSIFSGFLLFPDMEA
T3 sequence (P02747 29-245 limits assumed, chain 3 of 3): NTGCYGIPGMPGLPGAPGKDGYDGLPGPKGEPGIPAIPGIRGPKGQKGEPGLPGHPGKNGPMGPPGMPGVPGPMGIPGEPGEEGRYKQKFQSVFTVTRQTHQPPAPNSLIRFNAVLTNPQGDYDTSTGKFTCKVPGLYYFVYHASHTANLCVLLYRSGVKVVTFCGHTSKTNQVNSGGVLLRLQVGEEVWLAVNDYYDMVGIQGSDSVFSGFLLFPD
T2 sequence (P29317 25-534 limits assumed): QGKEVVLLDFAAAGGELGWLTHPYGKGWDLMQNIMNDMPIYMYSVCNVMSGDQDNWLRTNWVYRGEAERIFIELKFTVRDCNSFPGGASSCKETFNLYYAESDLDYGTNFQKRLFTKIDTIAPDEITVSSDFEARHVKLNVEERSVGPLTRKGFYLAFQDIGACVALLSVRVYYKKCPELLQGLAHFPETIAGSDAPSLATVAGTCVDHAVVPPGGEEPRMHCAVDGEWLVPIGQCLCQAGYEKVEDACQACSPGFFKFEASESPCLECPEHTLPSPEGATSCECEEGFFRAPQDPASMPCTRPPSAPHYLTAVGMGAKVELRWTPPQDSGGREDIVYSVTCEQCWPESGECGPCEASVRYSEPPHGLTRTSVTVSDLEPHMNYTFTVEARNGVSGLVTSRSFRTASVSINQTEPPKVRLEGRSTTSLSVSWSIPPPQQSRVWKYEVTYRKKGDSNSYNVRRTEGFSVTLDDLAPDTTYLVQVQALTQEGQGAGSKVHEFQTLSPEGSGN
T1 sequence (P08637 17-208): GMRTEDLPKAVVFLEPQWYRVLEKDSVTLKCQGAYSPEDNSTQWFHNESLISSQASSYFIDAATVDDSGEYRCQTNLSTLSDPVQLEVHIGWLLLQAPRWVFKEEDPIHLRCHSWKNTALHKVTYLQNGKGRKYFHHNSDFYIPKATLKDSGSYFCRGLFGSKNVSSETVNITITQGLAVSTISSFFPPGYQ

| Binder | Kd [1] [nM] | Kd [2] [nM] | Kd [3] [nM] |
| --- | --- | --- | --- |
| B1 | 6050 | 0.0011 | 89 |
| B2 |  | 0.0008 | 282 |
| B3 |  | 0.0017 |  |
| B4 | 6400 |  | 155 |
| B5 |  |  | 91 |
| B6 |  |  | 61 |
| B7 |  |  | 274 |
| B8 |  | 0.0072 |  |
| B9 |  |  | 92 |
| B10 |  | 0.0015 | 75 |
| B11 |  | 0.0027 |  |
